Reference: US20180346555A1 (Regeneron, published 2018)
Blank lines part the entries; values can stand above or below the binder they belong to.

How the values were obtained:
natural Bet v 1 [1] = target: T1, natural Bet v 1 (Betula verrucosa (Betula pendula), UniProt P15494 2-160); test: SPR Biacore 4000, mAb captured on anti-human Fc, 25C;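 further: purified anti-Bet v 1 mAbs probed with natural Bet v 1 in HBS-ET buffer (HEPES, NaCl, EDTA, Tween-20) at pH 7.4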
T1 construct: Bought natural protein; also called nBet v 1
T1 chain: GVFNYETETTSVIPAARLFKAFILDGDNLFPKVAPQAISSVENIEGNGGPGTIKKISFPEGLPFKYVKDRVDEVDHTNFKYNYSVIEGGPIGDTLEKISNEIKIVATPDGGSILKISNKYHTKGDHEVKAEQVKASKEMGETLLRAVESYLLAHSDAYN

natural Bet v 1 [2] = target: T1, natural Bet v 1; test: SPR Biacore 4000, mAb captured on anti-human Fc, 37C;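 further: kinetic rate constants from SPR sensorgrams fitted to a 1:1 model with mass transport limitation, HBS-ET buffer pH 7.4, KD and t½ derived from the rate constants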
natural Bet v 1 [3] = target: T1, natural Bet v 1; test: cell-based or functional assay
[4] = target: T2, natural Bet v 1 (Indoor Biotechnologies, # NA-BV1-1) (Betula verrucosa (Betula pendula), UniProt P15494 2-160, biotin labeled in the IgE blocking ELISA (Tables 12-14); unlabeled in the SPR of Table 18); test: blocking ELISA, captured IgE of donor 23035-BL, 1 ug/mL each antibody
T2 construct: Bought natural allergen purified from birch pollen; also called nBet v 1; Biotinylated Bet v 1
T2 chain: T1 chain

[5] = target: T2, natural Bet v 1 (Indoor …); test: blocking ELISA, captured IgE of donor 23939-MH, 1 ug/mL each antibody
[6] = target: T2, natural Bet v 1 (Indoor …); test: blocking ELISA, captured IgE of donor 25414-CW, 1 ug/mL each antibody
[7] = target: T2, natural Bet v 1 (Indoor …); test: dose-response blocking ELISA, captured IgE of donor 25340-RR, at 1 ug/mL each antibody
[8] = target: T2, natural Bet v 1 (Indoor …); test: dose-response blocking ELISA, captured IgE of donor 25609-MS, at 1 ug/mL each antibody
[9] = target: T2, natural Bet v 1 (Indoor …); test: blocking ELISA, captured IgE of donor 29718-MW, 1 ug/mL each antibody
[10] = target: T2, natural Bet v 1 (Indoor …); test: blocking ELISA, captured IgE of donor 25340-RR, 1 ug/mL each antibody
[11] = target: T2, natural Bet v 1 (Indoor …); test: blocking ELISA, captured IgE of donor 26532-CC, 1 ug/mL each antibody
[12] = target: T2, natural Bet v 1 (Indoor …); test: blocking ELISA, captured IgE of donor 25299-RJ, 1 ug/mL each antibody
[13] = target: T2, natural Bet v 1 (Indoor …); test: blocking ELISA, captured IgE of donor 25609-MS, 1 ug/mL each antibody
[14] = target: T2, natural Bet v 1 (Indoor …); test: dose-response blocking ELISA, captured IgE of donor 23939-MH, at 1 ug/mL each antibody
[15] = target: T3, Hazel (Cor A 1, MyBiosource, Cat# MBS5304600) (Hazel, UniProt Q08407 2-160, limits assumed); test: SPR Biacore 4000, mAb captured by anti-human Fc, 25 C;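 further: allergen analyte binding to captured, purified anti-Bet v 1 monoclonal antibodies, SPR in HEPES-buffered saline running buffer with EDTA and Tween-20 at pH 7.4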
T3 construct: Bought reagent
T3 sequence (looked up): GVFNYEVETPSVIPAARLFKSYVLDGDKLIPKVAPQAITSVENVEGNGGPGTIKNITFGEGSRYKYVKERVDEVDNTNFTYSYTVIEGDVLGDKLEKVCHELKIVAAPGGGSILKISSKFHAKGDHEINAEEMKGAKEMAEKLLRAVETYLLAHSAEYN

natural Bet v 1 [16] = target: T1, natural Bet v 1; test: SPR Biacore 4000, mAb captured on anti-human Fc, 37C; 37 C;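 on 100 nM natural Bet v 1 Bound (RU): kinetic rate constants from SPR sensorgrams fitted to a 1:1 model with mass transport limitation, HBS-ET buffer pH 7.4, KD and t½ derived from the rate constants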;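 on t½: kinetic rate constants from SPR sensorgrams fitted to a 1:1 model with mass transport limitation, HBS-ET buffer pH 7.4, KD and t½ derived from the rate constants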
[17] = target: T2, natural Bet v 1 (Indoor …); test: blocking ELISA, captured IgE of donor 23658-MD, 1 ug/mL each antibody
[18] = target: T2, natural Bet v 1 (Indoor …); test: blocking ELISA, captured IgE of donor 22627-MN, 1 ug/mL each antibody

B1: H4H17082P2 (antibody, human IgG4 S228P, kappa, V domains shown)
VH: QVQLVQSGAEVKKPGASVKVSCKASGYTFISYNIFWVRQATGQGLDWMGWMNPFRNNAGYAQKFQGRVTVTWDTSISTAYMELSSLSSEDTAIYYCAREHGSSWGFFDYWGQGTLVTVSS
VL: not shown
notes: Human IgG4; also called REGN5715; MAB2
100 nM natural Bet v 1 Bound (RU) (natural Bet v 1 [1]): 72 RU
Kd (natural Bet v 1 [1]): 1.09 nM
100 nM natural Bet v 1 Bound (RU) (natural Bet v 1 [2]): 83 RU
Kd (natural Bet v 1 [2]): 2.43 nM
t½ (natural Bet v 1 [2]): 6.3 min
blockade of basophil activation (phospho-Erk MFI in basophils of PBMCs from birch allergic donors, 100 pM natural Bet v 1) (natural Bet v 1 [3]): 70%

B3: H4H17082P2 (antibody, human IgG4 S228P, kappa, V domains shown)
VH: B1 VH
VL: not shown
notes: human IgG4 Fc; also called REGN5715; MAB2
100 nM Analyte Bound (RU) [15]: 20 RU

B6: H4H17038P2 (antibody, human IgG4 S228P, kappa, V domains shown)
VH: EVQLVESGGDLVQPGGSLRLSCAASGFTFSSYEMNWVRQAPGKGLEWVSFISDSSSNIYYADSVKGRFTISRDNAKKSLYLQMTSLRAEDTAVYYCAREAIGSTSFDNWGQGTLVTVSS
VL: EIVMTQSPATLSVSPGERATLSCRASQSVSSSLAWYQQKPGQAPRRLIYSASTRATGIPARFSGSGSGTEFTLTISSLQSEDFAIYYCHQYNNWPLTFGGGTKVEIKR
notes: human IgG4 Fc; also called REGN5714; MAB3
100 nM Analyte Bound (RU) [15]: 0 RU
binding result [15]: no binding (tested: 100 nM)

Now from value to binder:

Percent Blocking [4]: 52%
Percent Blocking [5]: 79%
Percent Blocking [6]: 38%
Percent Blocking [7]: 82.7%
Percent Blocking [8]: 56.4%
Percent Blocking [9]: 49%
Percent Blocking [10]: 81%
Percent Blocking [11]: 74%
Percent Blocking [12]: 66%
Percent Blocking [13]: 51%
Percent Blocking [14]: 82.9%
B2: H4H17082P2 (antibody, human IgG4 S228P, kappa, V domains shown)
VH: B1 VH
VL: not shown
notes: human IgG4; also called REGN5715; MAB2

100 nM natural Bet v 1 Bound (RU) (natural Bet v 1 [1]): 54 RU
Kd (natural Bet v 1 [1]): 13.5 nM
koff (natural Bet v 1 [1]): 0.00168 s⁻¹
kon (natural Bet v 1 [1]): 124000 M⁻¹ s⁻¹
t½ (natural Bet v 1 [1]): 6.8 min
100 nM natural Bet v 1 Bound (RU) (natural Bet v 1 [2]): 63 RU
t½ (natural Bet v 1 [2]): 2.1 min
Kd (natural Bet v 1 [16]): 27.9 nM
koff (natural Bet v 1 [16]): 0.00544 s⁻¹
kon (natural Bet v 1 [16]): ~195000 M⁻¹ s⁻¹
B4: H4H17031P (antibody, human IgG4, V domains shown)
VH: QVQLQQWGAGLLKPSETLSLTCVVYGESFGNYHWNWIRQSPGKRLEWIGEINQNGHTNYNPSLKSRVTISVDTSKIQFSLRLNSVTAADTAVYFCARGHNYVNSYFGLDVWGQGTTVTVSS
VL: EIVMTQSPATLSVSPGERATLSCRTSQSVSISLAWYQRKPGQAPRLLIFGSSTRATGVPARFSGSGSGTEFTLTISSLQSEDFAVYYCQQYNNWPYTFGQGTKLEIK

Percent Blocking [17]: 27%
Percent Blocking [4]: -46%
Percent Blocking [5]: 16%
Percent Blocking [6]: -4%
Percent Blocking [7]: 11.1%
Percent Blocking [8]: 21.6%
Percent Blocking [9]: 13%
Percent Blocking [10]: 15%
Percent Blocking [11]: 4%
Percent Blocking [18]: 12%
Percent Blocking [12]: 9%
Percent Blocking [13]: 16%
Percent Blocking [14]: 19.6%
B5: H4H16987P (antibody, human IgG4 S228P, kappa, V domains shown)
VH: EVQLVESGGGLVQPGGSLRLSCAASGFTVSSNSMSWVRQAPGEGLEWVSVIFSGGITYYSDSVKGRFTISRHNSKNTLYLQMNSLRTEDTAVYYCARHSNWNFDAFDIWGQGTMVTVSS
VL: DIQMTQSPSSLSASVGDRVTITCRASQSFDTYLNWYQQKPGKAPNLLIYATSSLQSGVPSRFSGSGSGTDFTLTISSLQPEDFGTYYCQQSYSIPYTFGQGTKLEIKR
notes: human IgG4; also called MAB4

100 nM Analyte Bound (RU) [15]: 0 RU
binding result [15]: no binding (tested: 100 nM)
B7: H4H17045P2 (antibody, human IgG4, V domains shown)
VH: EVQLVESGGGLVQPGVSLRLSCVASGFTFSNYDITWIRQIPGKGLEWVSRISGSGGSTYFADSVKGRFIISRDNSKNTVYMQMNSLRAEDSAVYYCARRDSVLFSMNSWLDPWGQGTLVTVSS
VL: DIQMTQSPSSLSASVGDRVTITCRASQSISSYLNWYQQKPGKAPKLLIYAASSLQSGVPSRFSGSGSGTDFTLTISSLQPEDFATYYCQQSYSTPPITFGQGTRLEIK
notes: Fully human antibody with human IgG4 Fc (H4H prefix)

100 nM Analyte Bound (RU) [15]: -1 RU
B8: H4H17067P2 (antibody, human IgG4, V domains shown)
VH: EVQLVQSGAEVKKPGESLKISCSGSGYRFTNYWIAWVRQMPGKGLEWMGLIHPDDSDIRYSPSFQGQVTFSVDKSINTAYLQWSSLKASDTAMYYCTRQDGILWSHNAWFDPWGQGTLVTVSS
VL: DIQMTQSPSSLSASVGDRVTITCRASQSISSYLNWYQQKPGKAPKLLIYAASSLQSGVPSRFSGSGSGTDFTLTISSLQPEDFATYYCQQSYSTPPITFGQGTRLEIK
notes: as for B7
